This note sets out measurements from US20020102257A1 (published 2002).

Experiment [1] has as its target RSV F protein, C-terminal truncated, secreted from recombinant baculovirus (respiratory syncytial virus) (UniProt P03420). The experiment in a line: SPR (BIAcore), F protein amine-coupled, Mab injected 25-300 nM. For orientation: SPR reads the build-up and loss of mass on a sensor chip optically.
The target is the same in experiment [2]. The experiment can be described thus: SPR (BIAcore), F protein amine-coupled, Kd = kd/ka.
Experiment [3] concerns the target T1, RSV F protein, C-terminal truncated, secreted from recombinant baculovirus (respiratory syncytial virus, UniProt P03420 26-524).
T1 construct: also called RSV F glycoprotein; RSV F antigen
The experiment can be described thus: SPR (BIAcore), F protein amine-coupled, Mab injected 25-300 nM.

As a reminder, the koff is a measure of how fast the partners let go of each other. As usually defined, the kon is a measure of how fast the partners come together. By Kd is commonly meant the concentration at which binding is half-saturated. In the case of “chimeric 1129 antibody (murine 1129 VH and VL joined to human C-gamma 1 and C-kappa)”, in experiment [1], the koff came to 7.5e-05 s⁻¹, the association rate constant (kon) was 50000 M⁻¹ s⁻¹ and the t1/2 came to 2.6 h. Further, the Kd in experiment [2] was found to be 1.5 nM.
In the case of murine monoclonal antibody MAb 1129, in experiment [1], the kon amounted to 35000 M⁻¹ s⁻¹ and the t1/2 worked out at 0.48 h. Moreover, the Kd in experiment [2] came out at 11.4 nM.

B1: humanized 1129 antibody (CDR-grafted MAb 1129, human COR VH / K102 VL frameworks, human IgG1 kappa) (antibody, V domains shown)
VH: QVTLRESGPALVKPTQTLTLTCTFSGFSLSTSGMSVGWIRQPPGKALEWLADIWWDDKKDYNPSLKSRLTISKDTSKNQVVLKVTNMDPADTATYYCARSMITNWYFDVWGAGTTVTVSS
VL: DIQMTQSPSTLSASVGDRVTITCKCQLSVGYMHWYQQKPGKAPKLWIYDTSKLASGVPSRFSGSGSGTEFTLTISSLQPDDFATYYCFQGSGYPFTFGGGTKLEIK
As for B1, the t1/2 in experiment [3] is 2.8 h.

B2: humanized 1308F antibody (CDR-grafted MAb 1308F, human HV3 VH / K102 VL frameworks, human IgG1 kappa) (antibody, V domains shown)
VH: QVQLVQSGAEVKKPGASVKVSCKASGFNIKDYYIYWVRQAPGQGLEWIGWIDPENGNTVFDPKFNGRVTMTRDTSTSTVYMELSSLRSEDTAVYYCAYYGTSSFDFWGQGTTLTVSS
VL: DIQMTQSPSTLSASVGDRVTITCKASQDINRYLNWYQQKPGKAPKLLIYRANRLVDGVPSRFSGSGSGTEFTLTISSLQPDDFATYYCLQFHEFPYTFGGGTKLEIL
On to B2, for which the t1/2 in experiment [3] was determined as 3.5 h.

B3: murine monoclonal antibody MAb 1308F (antibody, V domains shown)
VH: EVQKQQSGAELVRPGALVKLSCKASGFNIKDYYIYWVKQRPEQGLEWIGWIDPENGNTVFDPLFQGKASITSDTSSNTAYLQLSSLTSEDTAVYYCAYYGTSSFDFWGQGTTLTVSS
VL: DIKMTQSPSSMYVSLGERVTITCKASQDINRYLNWFQQKPGKSPKTLIHRANRLVDGVPSRFSGSGSGQEYSLTISSLEFEDMGIYYCLQFHEFPYTFGGGTKLEIL
As to B3, in experiment [3], the t1/2 was determined as 5.1 h.
